# B1: LINE1-full (parent)
# chain: UACGUAGGUGGUUUUCCCCUGAUAGUGCUAAGGGGGCCUGGAAGUUUGGACUGGGCAGAGCUCAACACAGCGUGGCAAAGUGGCUGUGGCUAGACUGCCUCUCUGGAUUCCUCGUCACUCAGCAGGGCAUCUCUGAGAGAAAUGCC
# Variants of: B1
# Test: self-cleavage, relative activity (ratio to wild type); higher = more cleavage; in vitro, sequencing; the parent is a self-cleaving ribozyme
row,Variant,self-cleavage
1,UACGCAGGUGGUUUUCCCCUGAUAGUGCUAAGGGGGCCUAGAAGUUUGGACUGGGCAGAGCUCAACACAGCGUGGCAAAGUGGCUGUGGCUAGACUGCCUCUCUGGAUUCCUCGUCACUCAGCAGGGCAUCUCUGAGAGAAAUGCC,0.42
2,UACGUAGGUGGUUUUCCCCUGAUAGUGCUAAGGGGGCCUGGAAGUUUGGACUGGGCAGAGCUCAACACAGCGUGGCAAAGUGGCUGUGGCUAGACUACCUCUCUGGAUCCCUCGUCACUCAGCAGGGCAUCUCUGAGAGAAAUGCC,0.05
3,UACGUAGGUGGUUAUCCCCUGAUAGUGCUAAGGGGGCCUGGAAGGUUGGACUGGGCAGAGCUCAACACAGCGUGGCAAAGUGGCUGUGGCUAGACUGCCUCUCUGGAUUCCUCGUCACUCAGCAGGGCAUCUCUGAGAGAAAUGCC,0.77
4,UACGUAGGUGGUUUUCCCCUGAUAGUGCUAAGGGGGCCUGGAAGUUUGGACUGGGCUGAGCUCAACACAGCGUGGCAAAGUGGCUGUAGCUAGACUGCCUCUCUGGAUUCCUCGUCACUCAGCAGGGCAUCUCUGAGAGAAAUGCC,0.04
5,UACGUAGGUGGUUUUCCCCUGAUAGUGCUAAGGGGGCCUGGAAGUUUGGACUGGGCAGAGCUCAACACAGCGUGGCAAAGUGGCUGUGGCUAGACUGCCCCUCUGGAUUCCUCGUCACUCAGCAGGGCAUCUCUGAGAGAAGUGCC,1.93
6,UACGUAGGUGGUUUUCCCCUGAUAGUGCUAAGGGGGCCUGGAAGUUUGGACUGGGCAGAGCUCAACACAGCGUGGCAAAGUGGCUGUGGCUAGACUGCCUCUCUGGAUUCCUCGUCACUCAGCAGGGCAUCUCAGAGAGAAAUGUC,0.83
7,UACGUAGGAGGUUUUCCCCUGAUAGUGCUAAGGGGGCCUGGAAGUUUGGACUGGGCAGAGCUCAACACAGCGUGGCAAAGUGGCUGUGGCUAGACUGCCUCUCUGGAUUCCUCGUCACUCAGCAGGGCAUCUCCGAGAGAAAUGCC,1.4
8,UACGUAGGUGGUUUUCCCCUGAUAGUGCUAAGGGGGCCUGGAAGUUUGUACUGGGCAGAGCUCAACACAGCGUGGCAAAGUGGCUGUGGCUAGACUGACUCUCUGGAUUCCUCGUCACUCAGCAGGGCAUCUCUGAGAGAAAUGCC,0.04
9,UCCGUAGGUGGUUUUCGCCUGAUAGUGCUAAGGGGGCCUGGAAGUUUGGACUGGGCAGAGCUCAACACAGCGUGGCAAAGUGGCUGUGGCUAGACUGCCUCUCUGGAUUCCUCGUCACUCAGCAGGGCAUCUCUGAGAGAAAUGCC,1.03
10,UACGUAGGUGGUUUUCCCCUGAUAGUGCUAAGGGGGCCUGGAAGUUUGGACUGGGCAGAGCUCAACACAGCGUGGCAAAGUGGCUGUGGCUAGACUGCCUCUCUGGAUUCCUCGUCACUUAGCAGGACAUCUCUGAGAGAAAUGCC,1.48
11,UACGUAGGUGGUUUUCCCCUGAUAGUGCUAAGGGGGCCUGGAAGUUUGGACUGGGCAGAGCUCAACACAGCGUGGCAAAGUGGCUGUGGCUAGACUGCCUCCCUAGAUUCCUCGUCACUCAGCAGGGCAUCUCUGAGAGAAAUGCC,2.14
12,UACGUAGGUGGUUUUCCCCUGAUAGUGCUAAGGGGGCCUGGAAGUUUGGACUGGGCAGAGCUCAACACAGCGUGGCAAAGUGGCUGUGGCUAGACUGCCUCUCUGGAUGCCUCGUCACCCAGCAGGGCAUCUCUGAGAGAAAUGCC,0.49
13,UACGUAGGUGGUUUUCCCCUGAUAGUGCUAAGGGGGCCUAGAAGUUUGGACUGGGCGGAGCUCAACACAGCGUGGCAAAGUGGCUGUGGCUAGACUGCCUCUCUGGAUUCCUCGUCACUCAGCAGGGCAUCUCUGAGAGAAAUGCC,0.4
14,UACGUAGGUGGUUUUCCCCUGAUAGUGCAAAGGGGGCCUGGAAGUUUGGACUGGGCAGAGCUCAACACAGCGUGGCAAAGUGGCUGUGGCCAGACUGCCUCUCUGGAUUCCUCGUCACUCAGCAGGGCAUCUCUGAGAGAAAUGCC,0.4
15,UACGUAGGUGGCUUUCCCCUGAUAGUGCUAAGGGGGCCUGGAAGUUUGGACUGGGCAGAGCUCAACACAGCGUGGCAAAGUGGCUGUGGCUAGACUGCCUCUCUGGAUUCCUCGUCACUCAGCAGGGCAUCUCUGAGAGAAACGCC,1.46
16,UACGUAGGUGGUUUUCCCCUGAGAGUGCUAAGGGGGCCUGGAAGUUUGGACUGGGCAGAGCUCAACACAGCGUGGCAAAGUGGCUGUGGCUAGACUGCCUCUCUGGAUUCCUCGUCACUCAGCAGGGCAUCUCUGAGAGAAAUGCC,1.18
17,UACGUAGGUGGUUUUCCCCUGAUAGUGCAAAGGGGGCCUGGAAGUUUGGACUGGGCAGAGCUCAACACAGCGUGGCAAAGUGGCUGUGGCUAGACUGCCUCUCUGGAUUCCUCGUCACUCAGCAGGGCAUCUCUGAGAGAAGUGCC,1.04
18,UACGUAGGUGGUUUUCCCCUGAUAGUGCCAAGGGGGCCUGGAAGUUUGGACUGGGCAGAGCUCAACACAGCGUGGCAAAGUGGCUGUGGCUAGACUGCCUCUCUGGAUUCCUCCUCACUCAGCAGGGCAUCUCUGAGAGAAAUGCC,1.49
19,UACGUAGGUGGUUUUCCCCUGAUAGUGCUAAGGGGGCCUGGAAGUUUGGACUGGGCAGAGCUCAACACAGCGUGGCAAAGUGGCUGUGGCUUGACUGCCUCUCCGGAUUCCUCGUCACUCAGCAGGGCAUCUCUGAGAGAAAUGCC,0.96
20,UACGUAGGUGGUUUCCCCCUGAUAGUGCAAAGGGGGCCUGGAAGUUUGGACUGGGCAGAGCUCAACACAGCGUGGCAAAGUGGCUGUGGCUAGACUGCCUCUCUGGAUUCCUCGUCACUCAGCAGGGCAUCUCUGAGAGAAAUGCC,1.27

row,Variant,self-cleavage
1,UAUGUAGGUGGUCUUCCCCUGAUAGUGCUAAGGGGGCCUGGAAGUUUGGACUGGGCAGAGCUCAACACAGCGUGGCAAAGUGGCUGUGGCUAGACUGCCUCUCUGGAUUCCUCGUCACUCAGCAGGGCAUCUCUGAGAGAAAUGCC,0.74
2,UACGUAGGUGGUUUUCCCCUGAUAGUGCUAAGGGGGCCUGGAAGUUUGGACUGGGCAGAGCUCAACACAGCGCGGCAAAGUGGCUGUGGCUAGACUGCCUCUCUGGAUUCCUCGUCACUCAGCAGGGCAUCUCUGUGAGAAAUGCC,1.76
3,UACGUAGGUGGUUUUCCCCUGAUAGUGCUAAGGGGGCCUGGAAGUUUGGACUGGGCAGAGCUCAACACGGCGUGGCAAAGUGGCUGUGGCUAGAUUGCCUCUCUGGAUUCCUCGUCACUCAGCAGGGCAUCUCUGAGAGAAAUGCC,0.06
4,UACGUUGGUGGUUUUCCCCUGAUAGUGCUAAGGGGACCUGGAAGUUUGGACUGGGCAGAGCUCAACACAGCGUGGCAAAGUGGCUGUGGCUAGACUGCCUCUCUGGAUUCCUCGUCACUCAGCAGGGCAUCUCUGAGAGAAAUGCC,0.88
5,UACGUAGGUGGUUUUCCCCUGAUAGUGCUAAGGGGGCCGGGAAGUUUGGACUGGGCAGAGCUCAACACAGCGUGGCAAAGUGGCUGUGGCUAGACUGCCUCUCUGGAUUCCUCGUCACUCAGCAGGGCAUCUCUGAGAGAAGUGCC,0.77
6,UACGUAGGUGGUUUUCCCCUGGUAGUGCUAAGGGGGCCUGGAAGUUUGGACAGGGCAGAGCUCAACACAGCGUGGCAAAGUGGCUGUGGCUAGACUGCCUCUCUGGAUUCCUCGUCACUCAGCAGGGCAUCUCUGAGAGAAAUGCC,1.21
7,UACGUAGGUGGUUUUCCCCUGAUGGUGCUAAGGGGGCCUGGAAGUUUGGACUGGGCAGAGCUCAACACAGCGUGGCAAAGUGGCUGUGGCUAGACUGCCUCUCUGGAUUCCCCGUCACUCAGCAGGGCAUCUCUGAGAGAAAUGCC,1.41
8,UACGUAGGUGGUUUUCCCCUGAUAGUGCUAAGGGGGCCUGGAAGUUUGGACUGGGCAGAGCUCAACGCAGCGUGGCAAAGUGGCUGUGGCUAGACUGCCUCUCUGGAUUCCUCGUCACUCAGCAGGGCAUCUCUGGGAGAAAUGCC,0.67
9,UACGUAGGUGGUUUUCCCCUGAUAGUGCUAGGGGGGCCUGGAAGUUUGGACUGGGCAGAGCUCAGCACAGCGUGGCAAAGUGGCUGUGGCUAGACUGCCUCUCUGGAUUCCUCGUCACUCAGCAGGGCAUCUCUGAGAGAAAUGCC,0
10,UACGUAGGUGGUUUUCCCCUGAUAGUGCUAAGGGGGCCUGGAAGUUUGGACUGGGCAGAGCUCAACACAGCAUGGCAAAGUGGCUGUGGCUAGACUGCCUCACUGGAUUCCUCGUCACUCAGCAGGGCAUCUCUGAGAGAAAUGCC,1.66
11,UACGUAGGUGGGUUUCCCCUGAUAGCGCUAAGGGGGCCUGGAAGUUUGGACUGGGCAGAGCUCAACACAGCGUGGCAAAGUGGCUGUGGCUAGACUGCCUCUCUGGAUUCCUCGUCACUCAGCAGGGCAUCUCUGAGAGAAAUGCC,0.57
12,UUCGUAGGUGGUUUUCCCCUGAUAGUGCUAAGGGGGCCUGGAAGUUUGGACUGGGCAGAGCUCAACACAGCGUGGCAAAGAGGCUGUGGCUAGACUGCCUCUCUGGAUUCCUCGUCACUCAGCAGGGCAUCUCUGAGAGAAAUGCC,1.38
13,UACGUAGGUGGUUUUCCCCUGAUAGUGCUAAGGGGGCCUGGAAGUUUGGGCUGGGCAGAGCUCAACACAGCGUGGCAAAGUGACUGUGGCUAGACUGCCUCUCUGGAUUCCUCGUCACUCAGCAGGGCAUCUCUGAGAGAAAUGCC,0.28
14,UACGUAGGUGGUUUUCCCCUGAUAGUGCUGAGGGGGCCUGGAAGUUUGGACUGGGCAGAGCUCAACACAGCGUGGCAAAGUGGCUGUGGCUAGACUGCCUCUCUGGAUUCCUCGUCACUCAGCGGGGCAUCUCUGAGAGAAAUGCC,0.91
15,UACGUAGGUGGUUUUCCCCUGAUAGCGCUAAGGGGGCCUGGAAGUUUGGACUGGGCAGAGAUCAACACAGCGUGGCAAAGUGGCUGUGGCUAGACUGCCUCUCUGGAUUCCUCGUCACUCAGCAGGGCAUCUCUGAGAGAAAUGCC,0.06
16,UACGUAGGUGGUUUUCCCCUGAUAGUGCUAAGGGGGCCUGGAAGUUUGGACUAGGCAGAGCUCAACACAGCGUGGCAAAGUGGCUGUGGCUAGACUGCCUCUCUGGAUUCCUCGUCACUCAGCAGAGCAUCUCUGAGAGAAAUGCC,1.23
17,UACGUAGGUGGUUUUCCCCUGAUAGUGCUAAGGGGGCCUGGAAGUUUGGACUGAGCAGAGCACAACACAGCGUGGCAAAGUGGCUGUGGCUAGACUGCCUCUCUGGAUUCCUCGUCACUCAGCAGGGCAUCUCUGAGAGAAAUGCC,0.01
18,UACGUAGGUGGUUUUCCCCUGAUAGUGCUUAGGGGGCCUGGAAGUUAGGACUGGGCAGAGCUCAACACAGCGUGGCAAAGUGGCUGUGGCUAGACUGCCUCUCUGGAUUCCUCGUCACUCAGCAGGGCAUCUCUGAGAGAAAUGCC,1.15
19,UACGUAGGUGGUUUUCCCCUGAUAGUGCUAAGGGGGCCUGGAAGUUUGGACGGGGCGGAGCUCAACACAGCGUGGCAAAGUGGCUGUGGCUAGACUGCCUCUCUGGAUUCCUCGUCACUCAGCAGGGCAUCUCUGAGAGAAAUGCC,0.82

# Source: the RNAGym collection of RNA variant scans (doi:10.7554/elife.90254)
